The source of these data is patent publication US11912781B2, “Humanized complement 5A receptor 1 antibodies and methods of use thereof” (VISTERRA, INC., priority 2021, dated 2024).

Data set [1] deals with U937-C5aR1 cells. As to the kind of experiment: Binding to U937-C5aR1 cells. Conditions: two antibody preparations.
For data set [2], the system named is human neutrophils. Briefly: Binding to human neutrophils. The following applies: two antibody preparations.
For data set [3], the target named is T1, C5aR1 (Homo sapiens, UniProt P21730).
T1 sequence (P21730 1-350): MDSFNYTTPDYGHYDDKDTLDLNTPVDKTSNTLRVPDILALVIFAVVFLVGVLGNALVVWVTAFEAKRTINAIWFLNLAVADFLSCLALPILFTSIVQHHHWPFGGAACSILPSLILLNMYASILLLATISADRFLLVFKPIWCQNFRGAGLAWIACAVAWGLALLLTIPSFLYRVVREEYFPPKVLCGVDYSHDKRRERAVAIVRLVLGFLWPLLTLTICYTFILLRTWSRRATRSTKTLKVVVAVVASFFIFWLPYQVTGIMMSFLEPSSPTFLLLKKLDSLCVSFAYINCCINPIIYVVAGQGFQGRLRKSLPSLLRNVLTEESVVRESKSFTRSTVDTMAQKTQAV
Briefly: GeneBLAzer assay, inhibition of Gα signaling. Format: cell-based. The protocol:
The GeneBLAzer assay kit and C5aR1 cell line were commercially available from Thermo Fisher (Catalog #K1544). The assay was performed as recommend by the manufacturer. Briefly, antibodies or antagonists were incubated for 30 minutes at increasing concentrations at 37° C. C5a was then added to the cells and incubated at 37° C. for an additional 4-5 hours. Beta-lactamase substrate was then added and incubated for 2 hours at room temperature. Fluorescent measurements for each well with an excitation/emission of 409/460 (blue) and 409/530 (green) were measured. An increase in the blue to green ratio was proportional to C5aR1 activation and was used to calculate the percent of activation for the cells in each well. The C5aR1 activation profile was monitored under increasing antagonist concentration. The IC50 was determined by plotting the percentage of signal against concentration of the antagonist.
This experiment was done as detailed in Example 2.

For data set [4], the system named is squirrel monkeys. Briefly: C5a-induced neutropenia in squirrel monkeys. Format: in vivo, squirrel monkey. Conditions: antibody 10 mg/kg or avacopan 30 mg/kg IV 1 h before 0.1 mg/kg human C5a, 1 min post-C5a. As to the method:
Briefly, three groups of squirrel monkeys were evaluated for inhibition of neutropenia. In the first group, 8 squirrel monkeys were injected with PBS (vehicle), intravenously. In the second group 8 squirrel monkeys were injected with exemplary antibodies at a dose of 10 mg/kg, intravenously. In the third group, group 8 squirrel monkeys were injected with avacopan at a dose of 30 mg/kg, intravenously. One hour after injection of the PBS, exemplary antibodies or avacopan, 0.1 mg/kg of human C5a was injected into the squirrel monkeys. The blood was collected after 1 min, 5 min 15 min, 2 hr and 6 hr after injection of human C5a. The percent change in neutrophils and average change in neutrophils were calculated in all three groups and are shown in FIG. 14B, as scatter plot.

For data set [5], the system named is CD11b. As to the kind of experiment: Inhibition of CD11b expression in neutrophils. Format: cell-based, human. Conditions: range of C5a concentrations. An excerpt: CD11b, an integrin receptor, is mobilized to the surface of neutrophils in response to C5a activation and mediates intravascular crawling prior to neutrophil transmigration. CD11 is involved in numerous adhesion-related associations between cells such as monocytes, macrophages, natural killer (NK) cells, and granulocytes.
The experimental details of this determining CD11 expression are described in Example 5.

The target in data set [6] is T1, C5aR1. As to the kind of experiment: β-arrestin2 recruitment, two-subunit luciferase reporter. Type of data set: cell-based. Set-up: expressed in transfected cells. The text has this:
The β-arrestin assay utilized a proprietary two-subunit luciferase reporter system: one subunit is fused to C5aR1 and one subunit is fused to β-arrestin2. When in close proximity, the two subunits formed an enzyme that generates a luminescent signal, used as a proxy for C5aR1-mediated recruitment of β-arrestin2.
The experimental details of this determining β-arrestin recruitment are described in Example 6. […] Table 14 summarizes the […] of inhibition of β-arrestin recruitment.

The subject of data set [7] is tMCAO mice. As to the kind of experiment: tMCAO stroke mouse model, infarct volume. Type of data set: in vivo. Conditions: antibodies 20 mg/kg, PMX53 1 mg/kg. As to the method: 1 mg/kg PMX53 was used as a control. The brain was resected, cut into slices and stained with TTC. The stained cross sections were analyzed by imaging.
Data set [8] can be described thus: Pharmacokinetics in Tg32 mice. Conditions: 5 mg/kg IV. Format: in vivo, mouse. As to the method: (§1) 5 mg/kg of exemplary monospecific and biparatopic antibodies were injected intravenously into Tg32 mice. The amount of the antibody in the serum was evaluated over a period of 500 hours. […] FIG. 16B-16D show the stability of the anti-C5aR1 antibodies in the serum of 5 different mice for 500 hours. […] The tetravalent antibodies have slightly lower persistence in serum as compared to the monospecific antibody. Motavizumab was used as a control.
Tg32 mice are a transgenic model in which human FcRn replaces native mouse FcRn. FcRn is necessary for the bidirectional transport of Abs across cellular barriers, influencing PK. Tg32 mice with human FcRn have been extensively studied and thought to correlate with PK in humans. The goal of this experiment was to assess FcRn-mediated recycling of IgG-scFv vs IgG formats and assess any impact of introducing Fc domain modifications on FcRn mediated recycling.
5 mg/kg of exemplary monospecific and biparatopic antibodies were injected intravenously into Tg32 mice. The percentage of antibody in the serum was determined using art-recognized assays. MVZ-IgG4-VFc17, a motavizumab antibody with IgG4 Fc and same Fc modifications as the C5aR1 antibodies, was used as a control. Further PK/PD analyses were carried out using CERTARA.

Data set [9] in a line: Pharmacokinetics in human C5aR1 knock-in mice. Format: in vivo, mouse. The following applies: hC5aR1 mice, 20 mg/kg. As to the method: as §1
Target-Mediated Drug Disposition (TMDD) is evident for both exemplary C5aR1 antibodies with modified Fc domains. TMDD is the phenomenon in which a drug binds with high affinity to its pharmacological target site (such as a receptor) to such an extent that this affects its pharmacokinetic (PK) characteristics. The target binding and subsequent elimination of the drug-target complexes could affect both drug distribution and elimination, and result in nonlinearity of PK in a dose-dependent manner.
The target binding and subsequent elimination of the drug-target complexes could affect both drug distribution and elimination, and result in nonlinearity of PK in a dose-dependent manner. FIG. 30A-30F show antibody persistence was dose-dependent. […] FIG. 30F is in silico graphical representation of isotype control antibody over a period of 500 hours at a concentration of 20 mg/Kg. Non-naïve mice were administered multiple dosing of the mAbs once weekly over 4 total weeks.

In data set [10] the target is T1, C5aR1. Briefly: Binding kinetics and internalization with or without sodium azide. The following applies: with or without 20 mM sodium azide. As to the method:
The Example seeks to verify that the internalization of the C5aR1 antibodies is specific and not due to non-specific clustering of the membrane immunoglobulin. Sodium azide is a metabolic inhibitor, and inhibits internalization or endocytosis as these are energy dependent processes. Any metabolic dependency on the internalization of exemplary C5aR1 antibodies were probed using 10 nM C5aR1 antibodies in the presence or absence of 20 mM sodium azide.

Turning to motavizumab [reference compound], the “EC50 of U937-C5aR1 binding” value in data set [1] is reported as “No Binding”. Besides, in data set [2], the “EC50 of human neutrophil binding” value is listed as “No Binding”.
As to `Cc1ccc(NC(=O)[C@H]2CCCN(C(=O)c3c(C)cccc3F)[C@H]2c2ccc(NC3CCCC3)cc2)cc1C(F)(F)F` [Avacopan], the IC50 (in general, the concentration that gives 50% inhibition) in data set [3] (read-out: IC50 (nM) 10 nM C5a, Gα signaling, 10 nM C5a, Table 13) was 2.2 nM; in data set [3] (read-out: IC50 (nM) 100 nM C5a, Gα signaling, extrapolated data, 100 nM C5a, Table 13, extrapolated), 0.7 nM; in data set [6] (10 nM C5a, Table 9, read-out: IC50 for β-arrestin signaling), 9.95 nM; in data set [6] (100 nM C5a, Table 9, read-out: IC50 for β-arrestin signaling), 3.25 nM; in data set [6] (read-out: IC50 (nM) at 100 nM C5a, beta-arrestin inhibition, 100 nM C5a, Table 14) it was 34 nM. For the same molecule, the “average reduction in neutrophil counts from baseline” value in data set [4] was 59%. The “inhibition of CD11b expression” value in data set [5] is reported as “only partially potent”. In addition, the “potency in β-arrestin2 recruitment as C5a increases” value in data set [6] (C5a concentrations increase to 10 nM) is listed as “lost potency”.
For PMX53 [reference compound], in data set [7], the “infarct volume compared to the vehicle group” value is “only slightly reduced infarct volume”.

B1: Isotype CTL: a motavizumab antibody with IgG4 Fc and same Fc modifications as the C5aR1 antibodies, used as a control (antibody, chains of the INN, looked up, V domains shown)
VH: QVTLRESGPALVKPTQTLTLTCTFSGFSLSTAGMSVGWIRQPPGKALEWLADIWWDDKKHYNPSLKDRLTISKDTSKNQVVLKVTNMDPADTATYYCARDMIFNFYFDVWGQGTTVTVSS
VL: DIQMTQSPSTLSASVGDRVTITCSASSRVGYMHWYQQKPGKAPKLLIYDTSKLASGVPSRFSGSGSGTEFTLTISSLQPDDFATYYCFQGSGYPFTFGGGTKVEIK
modifications: IgG4 Fc modifications
notes: a motavizumab antibody with IgG4 Fc and same Fc modifications as the C5aR1 antibodies, used as a control
Regarding B1, in [8] (GeoMean), the AUC0-24 was 1620 µg·h/mL, the AUCinf is 16900 µg·h/mL, the AUClast turned out to be 13100 µg·h/mL and the CL was found to be 7.08 mL/day/kg. In data set [8] (GeoMean), the Cmax – broadly, the peak of the concentration-time curve – worked out at 131 µg/mL and the V was determined as 0.104 L/kg. In data set [8] (Median), this molecule had a t1/2 of 259 h and a tlast of 504 h. In [9] (GeoMean), this molecule had an AUC0-24 of 7130 µg·h/mL, an AUCinf of 66200 µg·h/mL, an AUClast of 55800 µg·h/mL and a CL of 7.25 mL/day/kg. In [9] (GeoMean), the Cmax amounted to 453 µg/mL and the V was 0.06 L/kg. In data set [9] (Median), the t1/2 worked out at 127 h and the tlast came out at 504 h.

B2: c2139-e1711: biparatopic anti-C5aR1 antibody, VH1 SEQ ID NO: 14, VL1 SEQ ID NO: 25, VH2 SEQ ID NO: 16, VL2 SEQ ID NO: 17 (antibody, V domains shown)
VH 1: QVQLVQSGAEVKKPGASVKVSCKASGYTFTNYWMHWVRQAPGQGLEWMGYLNPSSGYTKYAQKFQGRVTMTRDTSTSTVYMELSSLRSEDTAVYYCTRSGGDNYGNPYYFDRWGQGTTVTVSS
VL 1: DVQMTQSPSSLSASVGDRVTITCRASQSIVHSNGNTYLHWYQQKPGKAPKFLIYKVSNRFSGVPSRFSGSGSGTDFTLTISSLQPEDFATYYCAQYTLVPLTFGQGTKLEIK
VH 2: EVQLVESGGGLIQPGGSLRLSCAASGFTFNAYAMSWVRQAPGKCLEWVSSISTGGNTYYADSVKGRFTISRDNSKNTLYLQMNSLRAEDTAVYYCTRGYQRFSGFAYWGQGTLVTVSS
VL 2: EIVLTQSPATLSLSPGERATLSCRSSQSLVHSNGNTYLNWYQQKPGQAPRLLIYKVSNRLSGIPARFSGSGSGTDFTLTISSLEPEDFAVYYCSQSTHVPYTFGCGTKLEIK
Take B2: the internalization entry in data set [10] was “undergoes internalization during association”.
